The nature of this series: soluble fraction after stress (log2 fold change); higher = more stays soluble; pooled small domains, quantitative proteomics. As to conditions: stress: 50 degC. In outline:
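The measure of aggregation propensity here is the base-two logarithm of the fold change in the soluble amount of each protein after stress. A higher value means more of that protein stays in solution. Stress was applied at 50°C to pooled libraries of small protein domains, read out by high-throughput quantitative proteomics.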
On to “HMLQVRRILQLLADGYSKRQISQQTAVSRNTIDSYEDRFHLTGKSYQELLSMEDGELSGIVYP”, for which the “soluble fraction (log2)” value is -0.424. To “HMLQVSDENFVVELVQKVLLDNPSSVQEYKNGKESVLQFLIGQAMKASKGTANPQIVKEIMLKLL” belongs -0.314.

Regarding “HMLQYSQEIEEAQKILQNLGLYKGEIDGINGVNTKSAIKEFQRKSGLIIDGILGPNTTSALSKGAESYITV”, the “soluble fraction (log2)” value was 0.112. Regarding “HMLRISEEVWALVEKTLREDWSPEQVSGKLKASGISVSHERIYQHIYADKRVGGTLWTHLRR”, the “soluble fraction (log2)” value was -2.3. To “HMLRLLEIIAGNEVSKEINSQVIKYYKALKNKKIEEINNLTPSYNKLIISFDLKKKNFREMKKIIEDISIN” belongs -0.162; to “HMLRPEEMIYHEMLDAILDRRLEPGMKLVEEDLAKTFGVSRARIRATFLQLAHDKLINLVPNRGAFVAEP”, -1.77. Then “HMLRRNQVQSQVIPRENGSYVVELQLRDDVDSILRLELTAATEAMARDLADRFRQDPEGVYTRLLSALY”, with -0.789. Then “HMLRTEYLTVNYAKASEVAELVTASGFLSSRGSITVDERTNTLLLQDTATNIDEVRFMLEQLD”, with -0.443; and “HMLSADLLDKIQRIDSLEQQGKYAQAEKEARALLSDPSITPSERASVQNILSSIARKKAAQAQ”, with 0.11; and “HMLSAGTTEQRLAMLQYQWEKQSETYSALGPNNGVVTLGQIRNTMAKIAELAGFKDAAQFWMPVPMDYDV”, with -0.323. On to “HMLSAPMPGTVLEVHVKEGQRVREGQTLVVMEAMKMEHRVQAPRAGVVTKLHYSEGDRVDVGAILVEIG”, for which the “soluble fraction (log2)” value turned out to be 0.0919. To “HMLSAQEIPVEDIATRDFVLAEDVVSAKKVLLLPKGVDLSWFGSAKKRLVQRLKSEGVTHIRVFA” belongs -0.0541. To “HMLSFSEAERAVLSLLNRRPDLSAKALASELAVSARTVERYLQSLQQKGKLLRVGAKKGGYWQV” belongs -0.478; to “HMLSGNLTADAHVHRGLQALSDGRNEDALVDFTKATEVQADFAEAWNKRATVNYLLGRYDAAVLDIQKTLE”, 0.19. Consider “HMLSLDDAAFERYDLTMREREVLLLLLNRLTYEEIAERLFISTNTVKTHVGNVYKKTGVSSRKELVSK”, for which the “soluble fraction (log2)” value is -1.08. Then “HMLSLGQQIRNHVLSRIESGEWPEGSRIPSEAKLVELLGASRMTIHIALRDLSAEGVLLRKQGAGTFVAPR”, with -2.47; and “HMLSRKEVFTVSQKDIEKNPIGAADKFFDGHVGIHKLLVVDEEDRLRGLFTLSDIERINDEQ”, with 0.0269; and “HMLSRTYDSSGPDVKIRGTAQTVADKYMSLARDAQSSGDRVMAENYLQHAEHYNRIIAAAQAQ”, with 0.254. Then “HMLSSEQQQKLDSLSRKELEVAELVSHGATNKMIARTMNITERTVKAHLTAIFQKMNIPDRLSLAIFFRDL”, with -2.44; and “HMLSSNEIKEIFALFDKSNRGQVATSELGTLVRALNLNPTETEITDMQSKVDPKGQGSFTLDVLEKVVQD”, with 0.206. On to “HMLSVNREQVEQSLKQEWGFDYDKNLRAAQRAIDVYGDDDLKLLLNGPTGNDPAIVKLFARLGGEVTEE”, for which the “soluble fraction (log2)” value was -0.00909. Turning to “HMLSYIELTVDNTSKASYIMTDKMKINNFKIIGNNTIRVYENKVSPQDISRTLSMNNVSIEALGRKS”, the “soluble fraction (log2)” value is -1.03. Regarding “HMLSYNINEESKSSIMNVNVLKNNFASIDVEKLQNIIFTTFKKYNYYLNDFSSMNLLLHLLIIVDREL”, the “soluble fraction (log2)” value was found to be 0.337. In the case of “HMLTEKEEEVMQILWDNGPLFVREILEFYPDPKPHYNTVSTVIRVLEEKNFASHKAYGNTYQYFP”, the “soluble fraction (log2)” value was -0.0146. To “HMLTLEDMTRINSIISPRIKKGQSLYHIAKNNGDELNISESTLRRLVMTGEMDAGIIDLPQAVK” belongs -0.138; to “HMLTLTNREKQVLVYIAKGHQVAQIAYELKLSGHTINGYIKTIYQKLHISSRAEAALLAQQYGL”, -3.56; to “HMLTRQNFHGIKLPTIHEYIDLLNSRVNANIDKTNNWQSSVSHLRTYLNSHNINAVSKESINNYIDERLN”, -0.572. To “HMLTRRQSEVLDFIRQFAESESMPPTLHEIAKGMGFSSDNAARDHVRALARKGAIDLVGGTSRGIRLR” belongs -0.354; to “HMLTRSASREELDQLLKRLRQNLKQKNFFWPPDKEKSLVLYLENLFSKFPLNSSDIRFLHGIIRTLSEK”, -0.178; to “HMLVGKSVIMKTNESSSGMIAGKVNYWENIDGKIYLGINGKLYDIADVDTVLDNDYYDKLVN”, -0.347.

Turning to “HMLVKKYTEEETGRQAELSKQLAELSKAYYNTGNSMVDDAVFDKLRDELSSLEKESGFAYDISPNVS”, the “soluble fraction (log2)” value was -0.953. Then “HMLVNNSTIETVIDFANVKFGMELTKDQVSEQLRNLSFSQTLKLINSMKADDNDAFSEIIDL”, with -0.672; and “HMLVSFGDHLKRYIYERAGIEEPFGEVPQEIYRDIAVDSFRETYTPKSMNPTSTKLPALVNNWLIQ”, with -0.746; and “HMLVSVSNYLGQNVDTVKSDLEALGLVVKLKEQQTDRESENGAVLEQSIEGGSKVSAGTPITLTYGK”, with 0.187. To “HMLWTHIALPVRSLDDTMAFYDKYTTLENIHERQDPETNMRSVWLANPGDKTEQAARFVLVLI” belongs -0.116; to “HMMTDAEKTFIFFSHLSSVEDHIAYGDKQFYMSLFWQHENKRELSSSQLYHLERLYNKYSMEEIEKKEEFS”, -0.78. To “HMMTDEEFLRIAGYMKQRYGIDLGQKKVIMNGRLENHIKSGGWSSFHAFMNDLEKDSSGKLEKELVNLLTT” belongs 0.0314; to “HMMTLEESYKLLQVSHNASDIEITKAFKKLALLYHPDKNPSNIDWANKAMASINVAYNTIITHRFKEK”, -0.628; to “HMNAAYDEELDFIFSLSEKGKWEEAEAEIGLLLQKHPEDATLQRIGEWVTTQKILLRQQAVEDRIRS”, -0.0763. For “HMNAEWMFDARKIPGLVMNYLRRIAVRAIEEKHYSPELVADLFGIDRTSIYDWLRKYRQQGEEALDTRKA”, the “soluble fraction (log2)” value was found to be 0.012. In the case of “HMNAFEIYPNPASNLIRIDAEFTVAKIFSQTGNLIQTSTTKEIDVYNLANGIYFVKLDDSPSMVKFVIN”, the “soluble fraction (log2)” value is -0.705. Then “HMNALTEAESKLLERMNKAGIHAEITTKKAAGILQRSENGARTVLNSLVKKGYLTVETNKAPYIYHLH”, with -0.11. To “HMNAMFEKVLAAVMGFIGVSAFAKNADGKSEMTSDQEKRLTDKWGSKFVEEFKNDLLEYEKNGNAAEDAV” belongs -0.264; to “HMNAPKKPLSAYFLFSQEERLKVKAENPDYSITEVAKELGKRWATLNPDIKTVYEQRYQDARRIYETEMNT”, -0.303.

Regarding “HMNAQLTTIPDLDGMNMRAATAMLSSLGLEVKRIGSGTVFAQFPKAGAAMRPGSMVTIRGKAKSL”, the “soluble fraction (log2)” value is -0.355. Then “HMNATLSSSYPTSVVTDGEIYKLTFGLNGKYNGQEQITVKPHGDSNIYDSGGLRAYQNTQSNNVVTLN”, with 0.1; and “HMNATQLSNTQKQIRTQLLERLSNNPLTVKQLADRMFVPIDTILKEITALIQEQKIIEDKGGKLQIN”, with 0.0217. To “HMNAVDLLSPQEQRIFELIGEGMSNRQIADVMYLAEKTVKNYVSNVLMKLGMERRTEAAALAARLDERQK” belongs -0.114; to “HMNAVITTQKAKQIALAHAGLSEADVNYVKAELENDDGVQVYDIEFYSKNIEYDYDINAVTGEIMSFDHDI”, -0.47; to “HMNAVYPNPFVSEIYIGENNRSVEIYNLNGGLVYGMSQPSSRIDVSGLAAGSYILIKKDSSGHISSHKIMK”, 0.0698. Then “HMNDAARQTTDILQHVRSSGSISFRDLWRLFMPFMAYRDFDAAVKSLVAAGHIATTENERKELHLIAF”, with -0.542; and “HMNDEFYAVVRESYAGYALVKPLDEDVGYDILSVSVKNLKVGDIIRLKVKNIKEIYPPEAEVLEVEVLQ”, with 0.00135.

As to “HMNDEQFAIAKNDLLLSLYDGKEVNNSAAEYIIAWESLEKSPSDYISSQLKNTAESIIKISFD”, the “soluble fraction (log2)” value is 0.0499. Then “HMNDFVTVPDLQGIFYSEAIKKIDKMGLKEGSIQFVNQDKFLPNTVLNQNPKEGTKVSQDSPINLIIS”, with 0.0352; and “HMNDILETISNQIRDLRVSKKITQQELAERTNLSVPYISQIENGHRNISLETFIKIVDALDIPLSDFFLP”, with -1.03; and “HMNDITVNVEDSKLIVTSNNPEKLPLYIMDIQGHILDKSEITAGTYSFPISDRGTYIVRIGENVYKVI”, with 0.0386. Then “HMNDLKVGELAKRGNVTAETVRHYTREGLLSPTRHPDNGYQLFSATDLERLHFIQRARKLGFSVAEIRDIL”, with -0.619.

Take “HMNDLVTWDRYKIELGDTLSEIAQKLVTRVDILKTVNQIQGTRIIAGNSLMVPRTTDTNVLTYL”: the “soluble fraction (log2)” value was -0.174. Consider “HMNDPIGDMLTRIRNAQMRGKSTVSTPASKLRAWVLEVLASEGYIRGFERATTDNGQGELVISLD”, for which the “soluble fraction (log2)” value was -0.665. Turning to “HMNDREAAYEDLPDELVRVGQKVFIKSLETEGVIVQPPNKKGEVRVRSGNISTNVKRSDLGLPIEKP”, the “soluble fraction (log2)” value came to 0.129. To “HMNDRRQDVFELLKSSERPVSAADLAHKFGVTRQVIVADIALLRASDIDIVSTNRGYILKANL” belongs -1.49; to “HMNDYNLTDREKEVLTFLFQGLEYKEIGMKMSVSPNTIRNHISNIYKKLHVTSKTQAIRVFLNN”, -2.21. To “HMNEAMIMIDLKGKSRDEAVKELDELNLKYRFTGNGIVKDQKPKAGEEINSDTVVEVELSEIK” belongs 0.114; to “HMNEDYFTIAGYASLRGVNIDTSKANMLGRKATKLSREYGYDIGKVTDTRFGKVNSYHLDILKSIFEF”, -0.477; to “HMNEFSYLSELGSEKGDLIKGLQLVQSREGYVSDDAIRAISKHFSIAEAEVEGVLTFYAQFK”, -0.572. Regarding “HMNEIESFSNTKNPFSLTFKTSKDSSYKVEASSNLKKWTTLSQIKGTGNPITFTESRRILFRKQYYRVTLS”, the “soluble fraction (log2)” value is -0.197. Then “HMNEISFYPNPAKESLTVKGLSEITSYSISDINGKLIQYGTTFDRINLEKLTKGFYFLTIGNTISKKLIV”, with -0.39; and “HMNEISLKEITIEEDHPWRDKKIKELDLKEHILVAMIRRKDQDIIPNGETKIYKDDILVIYD”, with 0.144.

In the case of “HMNEKFNVYPIPVYNNLNITGLSKPVTYLISSIDGKTIKNGVFQESIDVSDLKSGLYFLQVETKDPVKFIK”, the “soluble fraction (log2)” value was -0.658.

(Values after the domain aggregation screens of Martell et al. (2025).)
